# Data as given in publication PMC10682464, “The structural basis for light acclimation in phycobilisome light harvesting systems systems in Porphyridium purpureum” (Communications Biology, 2023).
# How the values were obtained:
# [1] = molecular target: T1, phycoerythrin (PE) β subunit of the Porphyridium purpureum phycobilisome (Porphyridium purpureum (endogenous in …, UniProt P11393 1-177, covalently attached open tetrapyrrole chromophores (sites not given))); experiment: cryo-EM structure; intact ML-PBS isolated from P. purpureum on a sucrose gradient; 1.5 mg/mL, diluted on the grid with 50 mM Tris pH 8.0, 16 °C; overall resolution 3.04 Å, C2 symmetry; settings: both partners purified
# T1 construct: phycoerythrin beta subunit, Porphyridium purpureum (UTEX 2757); chain of the ML-PBS model PDB 7EZX, which was built from LL-PBS PDB 6KGX; also called β^PE; PE subunit
# [2] = molecular target: the molecule itself; experiment: as above
Binder,binding result [1],stoichiometry N [2]
"phycoerythrin (PE) α subunit of the Porphyridium purpureum phycobilisome (natural protein, UniProt P11392 1-164, looked up, covalently attached open tetrapyrrole chromophores (sites not given), phycoerythrin alpha subunit, Porphyridium purpureum (UTEX 2757); chain of the ML-PBS model PDB 7EZX, which was built from LL-PBS PDB 6KGX; also called α^PE; PE subunit) MKSVITTVVSAADAAGRFPSNSDLESIQGNIQRSAARLEAAEKLAGNHEAVVKEAGDACFAKYAYLKNPGEAGENQEKINKCYRDVDHYMRLVNYDLVVGGTGPLDEWGIAGAREVYRTLNLPTSAYVASIAYTRDRLCVPRDMSAQAGVEFSAYLDYLINALS",binds,–
"αβ^PE monomer (phycoerythrin α and β subunits) of the Porphyridium purpureum phycobilisome (complex, covalently attached open tetrapyrrole chromophores (sites not given) | covalently attached open tetrapyrrole chromophores (sites not given), phycoerythrin alpha subunit, Porphyridium purpureum; as the chain of m1; phycoerythrin beta subunit, Porphyridium purpureum; as the chain of m2; The introduction says that (αβ) monomers assemble into trimers and hexamers; also called (αβ) monomer) chain 1: MKSVITTVVSAADAAGRFPSNSDLESIQGNIQRSAARLEAAEKLAGNHEAVVKEAGDACFAKYAYLKNPGEAGENQEKINKCYRDVDHYMRLVNYDLVVGGTGPLDEWGIAGAREVYRTLNLPTSAYVASIAYTRDRLCVPRDMSAQAGVEFSAYLDYLINALS chain 2: MLDAFSRVVVNSDAKAAYVGGSDLQALKSFIADGNKRLDAVNSIVSNASCMVSDAVSGMICENPGLISPGGNCYTNRRMAACLRDGEIILRYVSYALLAGDASVLEDRCLNGLKETYIALGVPTNSSIRAVSIMKAQAVAFITNTATERKMSFAAGDCTSLASEVASYFDRVGAAIS",–,6
